The values below come from US20250145711A1 (Janssen / Centocor, published 2025).

Residue numbers refer to the chain shown, from its start. Numbers in names are those of the source.

The chains are these.
B1: CD3B1128 (scFv)
scFv: QVVLTQSPAIMSAFPGEKVTMTCSASSSVSYMNWYQQKSGTSPKRWIYDSSKLASGVPARFSGSGSGTSYSLTISSMETEDAATYYCQQWSRNPPTFGGGTKLQITGGSEGKSSGSGSESKSTGGSQVQLQQSGAELARPGASVKMSCKASGYTFTRSTMHWVKQRPGQGLEWIGYINPSSAYTNYNQKFKDKATLTADKSSSTAYMQLSSLTSEDSAVYYCASPQVHYDYNGFPYWGQGTLVTVSA
notes: also called Murine LH; murine Cris-7 scFv (LH)
B2: CD3B1130 (scFv)
scFv: QVQLVQSGAEVKKPGSSVKVSCKASGYTFTRSTMHWVRQAPGQGLEWMGYINPSSAYTNYNQKFQGRVTLTADKSTSTAYMELSSLRSEDTAVYYCARPQVHYDYNGFPYWGQGTLVTVSSGGSEGKSSGSGSESKSTGGSEIVLTQSPATLSLSPGERATLSCSASSSVSYMNWYQQKPGTSPRRLIYDSSKLASGIPARFSGSGSGRDYTLTISSLEPEDFAVYYCQQWSRNPPTFGGGTKVEIK
notes: also called IGHV1-69*02-IGHJ1-01 / IGKV3-11*02-IGKJ4-01 grafted construct, HL
B3: CD3B1134 (scFv)
scFv: DIQLTQSPSSLSASVGDRVTITCSASSSVSYMNWYQQKPGTSPKRLIYDSSKLASGVPSRFSGSGSGTDYTLTISSLQPEDFATYYCQQWSRNPPTFGGGTKVEIKGGSEGKSSGSGSESKSTGGSEVQLVQSGAEVKKPGESLRISCKASGYTFTRSTMHWVRQMPGKGLEWMGYINPSSAYTNYNPSFQGHVTLSADKSISTAYLQWSSLKASDTAMYYCARPQVHYDYNGFPYWGQGTLVTVSS
B4: CD3B1135 (scFv)
scFv: EIVLTQSPATLSLSPGERATLSCSASSSVSYMNWYQQKPGTSPRRLIYDSSKLASGIPARFSGSGSGRDYTLTISSLEPEDFAVYYCQQWSRNPPTFGGGTKVEIKGGSEGKSSGSGSESKSTGGSQVQLVQSGAEVKKPGSSVKVSCKASGYTFTRSTMHWVRQAPGQGLEWMGYINPSSAYTNYNQKFQGRVTLTADKSTSTAYMELSSLRSEDTAVYYCARPQVHYDYNGFPYWGQGTLVTVSS
B5: CD3B1133 (scFv)
scFv: DIQLTQSPSSLSASVGDRVTITCSASSSVSYMNWYQQKPGTSPKRLIYDSSKLASGVPSRFSGSGSGTDYTLTISSLQPEDFATYYCQQWSRNPPTFGGGTKVEIKGGSEGKSSGSGSESKSTGGSQVQLVQSGAEVKKPGSSVKVSCKASGYTFTRSTMHWVRQAPGQGLEWMGYINPSSAYTNYNQKFQGRVTLTADKSTSTAYMELSSLRSEDTAVYYCARPQVHYDYNGFPYWGQGTLVTVSS
B6: CD3B1132 (scFv)
scFv: EVQLVQSGAEVKKPGESLRISCKASGYTFTRSTMHWVRQMPGKGLEWMGYINPSSAYTNYNPSFQGHVTLSADKSISTAYLQWSSLKASDTAMYYCARPQVHYDYNGFPYWGQGTLVTVSSGGSEGKSSGSGSESKSTGGSEIVLTQSPATLSLSPGERATLSCSASSSVSYMNWYQQKPGTSPRRLIYDSSKLASGIPARFSGSGSGRDYTLTISSLEPEDFAVYYCQQWSRNPPTFGGGTKVEIK
B7: PS3B1508 (bispecific antibody, human IgG1, lambda, L234A L235A)
chain: DIQMTQSPSSLSASVGDRVTITCRARQSIGTAIHWYQQKPGKAPKLLIKYASESISGVPSRFSGSGSGTDFTLTISSLQPEDFATYYCQQSGSWPYTFGQGTKLEIKGGSEGKSSGSGSESKSTGGSEVQLVESGGGLVKPGGSLRLSCAASGFTFSRYNMNWVRQAPGKGLEWVSSISTSSNYIYYADSVKGRFTFSRDNAKNSLDLQMSGLRAEDTAIYYCTRGWGPFDYWGQGTLVTVSSEPKSSDKTHTCPPCPAPEAAGGPSVFLFPPKPKDTLMISRTPEVTCVVVSVSHEDPEVKFNWYVDGVEVHNAKTKPREEQYNSTYRVVSVLTVLHQDWLNGKEYKCKVSNKALPAPIEKTISKAKGQPREPQVYTLPPSREEMTKNQVSLWCLVKGFYPSDIAVEWESNGQPENNYKTTPPVLDSDGSFFLYSKLTVDKSRWQQGNVFSCSVMHEALHNHYTQKSLSLSPGK
heavy: EVQLVESGGGLVQPGGSLRLSCAASGFTFSSYAMSWVRQAPGKGLEWVSAISGGIGSTYYADSVKGRFTISRDNSKNTLWLQMNSLRAEDTAVYYCAKDAVGATPYYFDYWGQGTLVTVSSASTKGPSVFPLAPSSKSTSGGTAALGCLVKDYFPEPVTVSWNSGALTSGVHTFPAVLQSSGLYSLSSVVTVPSSSLGTQTYICNVNHKPSNTKVDKKVEPKSCDKTHTCPPCPAPEAAGGPSVFLFPPKPKDTLMISRTPEVTCVVVSVSHEDPEVKFNWYVDGVEVHNAKTKPREEQYNSTYRVVSVLTVLHQDWLNGKEYKCKVSNKALPAPIEKTISKAKGQPREPQVYTLPPSREEMTKNQVSLSCAVKGFYPSDIAVEWESNGQPENNYKTTPPVLDSDGSFFLVSKLTVDKSRWQQGNVFSCSVMHEALHNRFTQKSLSLSPGK
light: QSVLTQPPSVSAAPGQKVTISCSGSSSNIGINYVSWYQQLPGTAPKLLIYDNNKRPSGIPDRFSGSKSGTSATLGITGLQTGDEADYYCGTWDSSLSAVVFGGGTKLTVLGQPKAAPSVTLFPPSSEELQANKATLVCLISDFYPGAVTVAWKADSSPVKAGVETTTPSKQSNNKYAASSYLSLTPEQWKSHRSYSCQVTHEGSTVEKTVAPTECS
notes: HC1 (Knob3): CD3W245-LH-scFv; HC2 (Hole3-RF) PSMB896-G100A-Fab-RF: IgG1 AAS; LC1 is given as NA; also called PS3B1508.003
B8: PS3B1396 (bispecific antibody, human IgG1, lambda, L234A L235A)
chain: EIVLTQSPATLSASPGERVTLSCSASSSVSYMNWYQQKPGQAPRRWIYDSSKLASGVPARFSGSGSGRDYTLTISSLEPEDFAVYYCQQWSRNPPTFGGGTKVEIKGGSEGKSSGSGSESKSTGGSQVQLVQSGAEVKKPGSSVKVSCKASGYTFTRSTMHWVKQAPGQGLEWIGYINPSSAYTNYNQKFQGRVTLTADKSTSTAYMELSSLRSEDTAVYYCASPQVHYDYAGFPYWGQGTLVTVSSEPKSSDKTHTCPPCPAPEAAGGPSVFLFPPKPKDTLMISRTPEVTCVVVSVSHEDPEVKFNWYVDGVEVHNAKTKPREEQYNSTYRVVSVLTVLHQDWLNGKEYKCKVSNKALPAPIEKTISKAKGQPREPQVYTLPPSREEMTKNQVSLWCLVKGFYPSDIAVEWESNGQPENNYKTTPPVLDSDGSFFLYSKLTVDKSRWQQGNVFSCSVMHEALHNHYTQKSLSLSPGK
heavy: B7 heavy
light: B7 light
notes: HC1 (Knob3): CD3B2030-N106A-scFv LH, HC2 (Hole3): PSMB896-G100A-Fab; LC1 is given as NA; also called PS3B1396.002
B9: PS3B1505 (bispecific antibody, human IgG1, lambda, L234A L235A)
heavy 1: QVQLQQSGPRLVRPSQTLSLTCAISGDSVFNNNAAWSWIRQSPSRGLEWLGRTYYRSKWLYDYAVSVKSRITVNPDTSRNQFTLQLNSVTPEDTALYYCARGYSSSFDYWGQGTLVTVSSASTKGPSVFPLAPSSKSTSGGTAALGCLVKDYFPEPVTVSWNSGALTSGVHTFPAVLQSSGLYSLSSVVTVPSSSLGTQTYICNVNHKPSNTKVDKKVEPKSCDKTHTCPPCPAPEAAGGPSVFLFPPKPKDTLMISRTPEVTCVVVSVSHEDPEVKFNWYVDGVEVHNAKTKPREEQYNSTYRVVSVLTVLHQDWLNGKEYKCKVSNKALPAPIEKTISKAKGQPREPQVYTLPPSREEMTKNQVSLTCLVKGFYPSDIAVEWESNGQPENNYKTTPPVLDSDGSFLLYSKLTVDKSRWQQGNVFSCSVMHEALHNHYTQKSLSLSPGK
light 1: QSALTQPASVSGSPGQSITISCTGTSSNIGTYKFVSWYQQHPDKAPKVLLYEVSKRPSGVSSRFSGSKSGNTASLTISGLQAEDQADYHCVSYAGSGTLLFGGGTKLTVLGQPKAAPSVTLFPPSSEELQANKATLVCLISDFYPGAVTVAWKADSSPVKAGVETTTPSKQSNNKYAASSYLSLTPEQWKSHRSYSCQVTHEGSTVEKTVAPTECS
heavy 2: B7 heavy with S370T, A372L, V411Y, K413R, R439H, F440Y
light 2: B7 light
notes: HC1 CD3B376-Fab x HC2 PSMB896-G100A IgG1 DuoBody; also called PS3B1505.001

The target in one assay is T1, TRCW5 antigen (CD3δε-Fc-Avi) (biotinylated (site not stated)).
T1 construct: also called recombinant CD3
T1 sequence (chain, as listed by the source mutant limits assumed): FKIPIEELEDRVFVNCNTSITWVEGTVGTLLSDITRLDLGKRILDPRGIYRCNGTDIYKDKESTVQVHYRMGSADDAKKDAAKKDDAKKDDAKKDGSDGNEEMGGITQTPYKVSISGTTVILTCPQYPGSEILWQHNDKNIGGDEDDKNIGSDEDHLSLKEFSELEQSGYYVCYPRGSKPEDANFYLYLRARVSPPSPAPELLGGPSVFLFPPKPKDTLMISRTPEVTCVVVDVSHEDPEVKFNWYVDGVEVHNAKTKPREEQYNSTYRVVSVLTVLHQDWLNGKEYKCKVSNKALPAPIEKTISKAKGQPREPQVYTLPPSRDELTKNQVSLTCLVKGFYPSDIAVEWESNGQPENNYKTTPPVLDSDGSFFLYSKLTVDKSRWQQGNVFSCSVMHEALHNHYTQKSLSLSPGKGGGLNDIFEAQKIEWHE
The assay is described as follows: ELISA after heat. (In an ELISA, binding on a coated surface is turned into a signal by an enzyme label.)
With B1, the “% Retained 55° C.” value came to 10%, the “% Retained 60° C.” value stood at 2% and the “% Retained 65° C.” value worked out at 3%.
With B2, the “% Retained 55° C.” value was found to be 90%, the “% Retained 60° C.” value was determined as 11% and the “% Retained 65° C.” value stood at 1%.

The target of a further assay is T1, TRCW5 antigen (CD3δε-Fc-Avi). The assay is described as follows: ELISA, E. coli scFv on biotinylated TRCW5. The procedure:
Briefly, DNA was transformed into an E. coli expression vector to generate scFv molecules having a C-terminal HA-tag, and cells were plated on 2×YT/Carb/2% Glucose grown overnight at 37 C. Colonies were picked and transferred 50 ul of overnight growth cultures to new plates containing 500 ul of 2×YT/Carb/0.1% Glucose, grown for 6-7 hr, and combined with 50 ul 2×YT medium containing 1×carbenicillin & 12×IPTG. Cultures were incubated with shaking ˜600 RPM 30° C. overnight. Streptavidin coated plates were bound with 50 μL of biotinylated TRCW5 antigen (CD3δε-Fc-Avi, SEQ ID NO: 39) at the concentrations indicated in the ELISA graph for 45 min at room temperature with shaking (FIG. 1, FIG. 3, FIG. 4) followed by washing 3× with 1×TBST. Plates were blocked with 200 ul 3% Milk in 1×TBST for ˜45 mins at room temperature followed by washing 3× with 1×TBST. E. coli cultures were harvested by centrifugation at […] for 10 mins 4° C. and 50 μL of supernatant was transferred into CD3-coated plates followed by incubation at 4 C for 45 min. Plates were washed 3× with 1×TBST. Bound scFv was detected with Chicken Polyclonal Anti-HA-HRP (ab1190) [1:1000] for ˜45 mins RT and luminescence detected with chemi-luminescent substrate.
Consider B1, for which the EC50 is roughly 437 pM.
With B3, the EC50 was roughly 6.3 pM.
Molecule B4 returned an EC50 of 1040 pM. That is a single-digit nanomolar value.
Molecule B2 gave an EC50 of 746 pM.
Molecule B5 gave an EC50 of 958 pM.
B6 displayed an EC50 of roughly 1100 pM.

The target in another assay is T2, recombinant human PSMA (human, UniProt Q04609 44-750).
T2 construct: also called hu PSMA; prostate-specific membrane antigen
T2 sequence (Q04609 44-750 limits assumed): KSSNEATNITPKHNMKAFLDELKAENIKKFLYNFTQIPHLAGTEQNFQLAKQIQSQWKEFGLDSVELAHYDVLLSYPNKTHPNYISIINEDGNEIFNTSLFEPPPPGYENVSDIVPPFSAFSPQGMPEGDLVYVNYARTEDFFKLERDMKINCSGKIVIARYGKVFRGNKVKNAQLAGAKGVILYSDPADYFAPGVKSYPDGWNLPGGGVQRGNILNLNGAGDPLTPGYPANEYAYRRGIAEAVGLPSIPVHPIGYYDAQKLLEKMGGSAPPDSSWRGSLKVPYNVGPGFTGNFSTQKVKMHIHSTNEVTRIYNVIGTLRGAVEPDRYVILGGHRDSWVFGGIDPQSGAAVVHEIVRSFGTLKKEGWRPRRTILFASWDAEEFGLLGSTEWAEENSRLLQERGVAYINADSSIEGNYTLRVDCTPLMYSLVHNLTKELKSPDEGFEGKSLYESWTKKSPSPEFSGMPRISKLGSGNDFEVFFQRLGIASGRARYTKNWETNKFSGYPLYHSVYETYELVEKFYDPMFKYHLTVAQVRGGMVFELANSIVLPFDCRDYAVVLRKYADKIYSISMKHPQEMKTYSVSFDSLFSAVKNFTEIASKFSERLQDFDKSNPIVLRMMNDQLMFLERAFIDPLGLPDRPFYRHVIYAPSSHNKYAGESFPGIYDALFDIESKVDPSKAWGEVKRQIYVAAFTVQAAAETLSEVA
The assay is described as follows: SPR (Biacore 8K), antibody captured on anti-Fc, PSMA in solution; average of 2. The procedure: (§1) The binding affinity of anti-PSMA to the recombinant human or cynomolgus PSMA was determined by surface plasmon resonance (SPR) using a Biacore 8K instrument (ELN PSMA-00721). The antibodies were captured on a goat anti-Fc antibody-modified C1 chip and titrated with 3-fold serial dilutions of PSMA antigen spanning concentrations of 100 nM to 3.7 nM (human PSMA) or […] 22.2-600 nM for cyno PSMA. The association and dissociation were monitored for 3 and 60 minutes, respectively, using a flow rate of 50 μL/min. Raw binding data was referenced by subtracting the analyte binding signals from blanks and analyzed using a 1:1 Langmuir binding model by the Biacore Insight evaluation software to obtain the kinetics which were used to calculate the binding affinity. The anti-PSMA were captured using an anti-human Fc antibody and the antigens were injected in solution.
Background: Surface plasmon resonance follows binding to a sensor surface in real time, without labels.
On to B7, for which the Kd was found to be 382 pM, the koff came out at 8.89e-05 s⁻¹ and the kon is 232000 M⁻¹ s⁻¹.
For the molecule B8, the Kd turned out to be 395 pM, the koff came out at 8.82e-05 s⁻¹ and the kon came out at 224000 M⁻¹ s⁻¹.
For B9 the same measures were 393 pM, 9.1e-05 s⁻¹ and 232000 M⁻¹ s⁻¹.

Another assay concerns the target T3, recombinant cynomolgus PSMA (cynomolgus, UniProt A0A2K5VNZ0 44-750).
T3 construct: also called cy PSMA; cyno PSMA
The description is as above. The procedure:
as §1
Regarding B7, the Kd turned out to be 2200 pM, the koff was 0.00323 s⁻¹ and the kon was determined as 1.46e+06 M⁻¹ s⁻¹.
B8: the Kd was determined as 5070 pM, the koff stood at 0.0019 s⁻¹ and the kon was found to be 587000 M⁻¹ s⁻¹.
Consider B9, for which the Kd came to 5010 pM, the koff was determined as 0.00124 s⁻¹ and the kon is 429000 M⁻¹ s⁻¹.

What is called EC50 is the concentration at which the effect is half-maximal. Read a low EC50 as greater potency. As a reminder, the Kd is the concentration at which binding is half-saturated. Usually koff stands for a measure of how fast the partners let go of each other. One may read the kon as a measure of how fast the partners come together.
